From doi:10.1101/710897 come the findings set out here.

This test deals with UapA K73A/R133A/R421A/T401P, purified, detergent-solubilized (Aspergillus nidulans) (UniProt Q07307). Put plainly: native MS.

As to “UapA K73A/R133A/R421A/T401P, purified, detergent-solubilized (from UniProt Q07307 1-574) (natural protein)”, the stoichiometry N (usually a count of units in the complex or per binding partner) is 2.
